Test in all cases: EMSA
For data set [1], the target named is T1, FANCD2 WT full-length (human, UniProt Q9BXW9 1-1451).
The target in data set [2] is T2, F2 (human, UniProt Q9BXW9 589-840).
Data set [3] has as its target T3, F4 (human, UniProt Q9BXW9 1179-1451).
Data set [4] has as its target T4, F3Mut1aa (human, UniProt Q9BXW9 841-1178, K865A).
Data set [5] concerns the target T5, F1Mut5aa (K-A) (human, UniProt Q9BXW9 1-588, S29A;K30A;K31A;T32A;K34A).
Data set [6] concerns the target F3 (human, UniProt Q9BXW9 841-1178).
In data set [7] the target is F1 (human, UniProt Q9BXW9 1-588).
Sequence of F1 (Q9BXW9 1-588): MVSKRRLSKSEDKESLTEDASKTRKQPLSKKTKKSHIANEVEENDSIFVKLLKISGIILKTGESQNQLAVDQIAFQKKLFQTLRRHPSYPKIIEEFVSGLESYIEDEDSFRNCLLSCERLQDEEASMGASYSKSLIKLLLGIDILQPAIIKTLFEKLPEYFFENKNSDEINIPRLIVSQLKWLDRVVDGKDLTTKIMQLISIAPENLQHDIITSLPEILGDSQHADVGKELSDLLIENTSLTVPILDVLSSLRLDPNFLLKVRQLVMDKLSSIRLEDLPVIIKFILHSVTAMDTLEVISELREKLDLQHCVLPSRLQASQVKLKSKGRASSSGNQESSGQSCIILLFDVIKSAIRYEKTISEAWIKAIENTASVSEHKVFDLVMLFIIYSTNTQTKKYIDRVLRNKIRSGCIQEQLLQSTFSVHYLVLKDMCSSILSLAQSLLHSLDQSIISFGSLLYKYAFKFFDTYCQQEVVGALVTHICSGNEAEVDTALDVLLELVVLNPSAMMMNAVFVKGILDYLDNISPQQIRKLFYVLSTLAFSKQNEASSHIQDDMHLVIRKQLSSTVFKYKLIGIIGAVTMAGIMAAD
The target of data set [8] is T2, F2. The source holds these as a separate data set.
For data set [9], the target named is T3, F4. The source holds these as a separate data set.
Data set [10] concerns the target T4, F3Mut1aa. This is another data set of the same source.
In data set [11] the target is T5, F1Mut5aa (K-A). The source holds these as a separate data set.
Data set [12] deals with T1, FANCD2 WT full-length. The source holds these as a separate data set.

Like-named read-outs stand apart in the source and are kept apart here.

From PMC5737651 come the findings set out here.

T5 sequence (Q9BXW9 1-588 S29A/K30A/K31A/T32A/K34A): as the sequence (Q9BXW9 1-588) above, with S29A, K30A, K31A, T32A, K34A counted along it
T1 sequence (Q9BXW9 whole entry): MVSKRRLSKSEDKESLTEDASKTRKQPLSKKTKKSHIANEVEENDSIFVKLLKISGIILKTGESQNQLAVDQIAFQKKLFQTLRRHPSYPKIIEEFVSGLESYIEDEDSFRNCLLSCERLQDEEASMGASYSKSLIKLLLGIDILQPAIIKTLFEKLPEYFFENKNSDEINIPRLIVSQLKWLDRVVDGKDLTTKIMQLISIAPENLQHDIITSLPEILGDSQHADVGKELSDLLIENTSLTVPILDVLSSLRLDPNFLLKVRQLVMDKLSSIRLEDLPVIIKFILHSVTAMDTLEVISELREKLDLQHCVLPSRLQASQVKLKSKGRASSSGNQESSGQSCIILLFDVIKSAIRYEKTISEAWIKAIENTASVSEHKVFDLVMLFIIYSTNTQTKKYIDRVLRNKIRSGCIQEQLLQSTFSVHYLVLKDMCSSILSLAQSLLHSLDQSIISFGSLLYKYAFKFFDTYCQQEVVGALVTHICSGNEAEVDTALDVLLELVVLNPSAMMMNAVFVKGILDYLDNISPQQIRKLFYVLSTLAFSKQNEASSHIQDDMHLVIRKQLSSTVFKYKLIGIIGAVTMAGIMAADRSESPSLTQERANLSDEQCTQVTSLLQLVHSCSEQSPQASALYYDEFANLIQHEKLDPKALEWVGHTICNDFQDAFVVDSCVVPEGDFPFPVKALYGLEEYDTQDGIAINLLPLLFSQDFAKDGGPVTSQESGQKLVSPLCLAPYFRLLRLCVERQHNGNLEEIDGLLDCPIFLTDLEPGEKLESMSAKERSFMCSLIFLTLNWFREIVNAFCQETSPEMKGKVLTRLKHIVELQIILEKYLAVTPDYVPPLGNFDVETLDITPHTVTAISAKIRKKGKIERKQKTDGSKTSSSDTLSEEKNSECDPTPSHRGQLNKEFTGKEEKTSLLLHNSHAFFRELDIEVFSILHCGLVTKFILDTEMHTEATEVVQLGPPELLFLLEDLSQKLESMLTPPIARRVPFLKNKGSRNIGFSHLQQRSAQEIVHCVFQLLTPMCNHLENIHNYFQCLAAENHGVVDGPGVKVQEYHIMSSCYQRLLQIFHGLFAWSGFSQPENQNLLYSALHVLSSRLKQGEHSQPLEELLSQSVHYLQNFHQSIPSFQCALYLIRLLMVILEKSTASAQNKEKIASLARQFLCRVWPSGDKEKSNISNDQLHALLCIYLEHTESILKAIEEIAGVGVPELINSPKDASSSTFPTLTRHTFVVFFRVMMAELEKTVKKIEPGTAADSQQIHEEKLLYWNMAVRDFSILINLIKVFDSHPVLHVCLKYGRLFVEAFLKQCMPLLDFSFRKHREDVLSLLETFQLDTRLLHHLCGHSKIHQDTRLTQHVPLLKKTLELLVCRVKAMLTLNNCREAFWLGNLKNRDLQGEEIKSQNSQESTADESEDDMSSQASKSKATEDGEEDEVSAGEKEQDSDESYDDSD
T3 sequence (Q9BXW9 1179-1451): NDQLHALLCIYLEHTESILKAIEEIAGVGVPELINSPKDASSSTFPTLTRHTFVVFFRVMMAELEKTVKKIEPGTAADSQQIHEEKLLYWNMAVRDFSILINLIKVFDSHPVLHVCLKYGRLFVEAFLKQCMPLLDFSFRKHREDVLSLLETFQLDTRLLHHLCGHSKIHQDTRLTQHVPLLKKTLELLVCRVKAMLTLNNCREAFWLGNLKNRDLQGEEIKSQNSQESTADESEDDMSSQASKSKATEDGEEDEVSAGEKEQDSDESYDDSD
T2 sequence (Q9BXW9 589-840): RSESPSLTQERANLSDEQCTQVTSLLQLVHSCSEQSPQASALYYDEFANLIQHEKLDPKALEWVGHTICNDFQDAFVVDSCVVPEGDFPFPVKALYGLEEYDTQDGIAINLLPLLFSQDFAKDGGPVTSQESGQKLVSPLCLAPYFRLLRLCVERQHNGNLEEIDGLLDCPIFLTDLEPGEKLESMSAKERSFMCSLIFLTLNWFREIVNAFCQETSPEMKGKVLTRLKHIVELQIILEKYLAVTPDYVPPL
T4 sequence (Q9BXW9 841-1178 K865A): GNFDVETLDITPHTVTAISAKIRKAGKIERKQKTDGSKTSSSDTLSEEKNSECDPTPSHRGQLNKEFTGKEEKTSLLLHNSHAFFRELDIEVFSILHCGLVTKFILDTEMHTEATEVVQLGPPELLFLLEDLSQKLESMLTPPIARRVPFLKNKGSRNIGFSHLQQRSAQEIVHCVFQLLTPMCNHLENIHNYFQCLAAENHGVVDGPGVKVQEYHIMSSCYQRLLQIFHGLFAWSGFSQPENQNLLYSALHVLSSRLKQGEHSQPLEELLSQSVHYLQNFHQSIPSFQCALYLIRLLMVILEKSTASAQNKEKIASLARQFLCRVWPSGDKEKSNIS
Sequence of F3 (Q9BXW9 841-1178): as the sequence (Q9BXW9 841-1178 K865A) above, with A25K counted along it

B1: ssDNA (SS) (ssDNA)
DNA: GGGTGAACCTGCAGGTGGGCAAAGATGTCCTAGCAATGTAATCGTCAAGCTTTATGCCGT
As to B1, the binding result is reported as “binds” in data set [1]; “no binding” in data set [2]; “no binding” in data set [3]; “no binding” in [4]; “no binding” in data set [5]; “binds” in [6]. Further, the binding result in [7] is “binds”.

B2: Holliday junction (HJ) (structured_DNA)
DNA 1: B1 DNA
DNA 2: ACGCTGCCGAATTCTACCAGTGCCAGCGACGGACATCTTTGCCCACCTGCAGGTTCACCC
DNA 3: ACGGCATAAAGCTTGACGATTACATTGCTACATGGAGCTGTCTAGAGGATCCGACTATCG
DNA 4: CGATAGTCGGATCCTCTAGACAGCTCCATGGTCGCTGGCACTGGTAGAATTCGGCAGCGT
For B2, the binding result in data set [8] is “no binding”; in [9] it was “no binding”; in data set [10], “no binding”; in [11] it was “no binding”; in data set [12] it was “binds”.
